Experimental data as given in patent US20110136223A1 (Genentech, published 2011).
One block for each binder: values may come before it.

How the values were obtained:
[1] = molecular target: T1, recombinant soluble rat GDNFRα (rat, UniProt Q62997 25-430, limits assumed); test: binding of biotinylated NTN
T1 construct: also called rGDNFRα; GFR-alpha-1
T1 sequence: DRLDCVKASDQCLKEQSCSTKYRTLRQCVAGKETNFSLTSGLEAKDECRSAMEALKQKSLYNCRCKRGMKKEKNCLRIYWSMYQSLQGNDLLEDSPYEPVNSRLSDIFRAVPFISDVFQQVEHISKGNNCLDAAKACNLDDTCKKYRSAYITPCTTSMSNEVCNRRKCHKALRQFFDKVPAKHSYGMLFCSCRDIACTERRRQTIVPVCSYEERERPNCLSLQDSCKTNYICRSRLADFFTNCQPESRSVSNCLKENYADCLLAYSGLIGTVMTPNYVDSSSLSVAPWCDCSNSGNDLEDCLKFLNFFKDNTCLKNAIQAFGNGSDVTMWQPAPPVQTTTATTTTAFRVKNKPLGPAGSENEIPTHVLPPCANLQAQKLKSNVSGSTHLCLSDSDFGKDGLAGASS

[2] = molecular target: T2, rat NTNRα, endogenous on embryonic (E14) rat spinal motoneurons (rat); test: cell-based or functional assay
T2 sequence (chain, GPI-linked): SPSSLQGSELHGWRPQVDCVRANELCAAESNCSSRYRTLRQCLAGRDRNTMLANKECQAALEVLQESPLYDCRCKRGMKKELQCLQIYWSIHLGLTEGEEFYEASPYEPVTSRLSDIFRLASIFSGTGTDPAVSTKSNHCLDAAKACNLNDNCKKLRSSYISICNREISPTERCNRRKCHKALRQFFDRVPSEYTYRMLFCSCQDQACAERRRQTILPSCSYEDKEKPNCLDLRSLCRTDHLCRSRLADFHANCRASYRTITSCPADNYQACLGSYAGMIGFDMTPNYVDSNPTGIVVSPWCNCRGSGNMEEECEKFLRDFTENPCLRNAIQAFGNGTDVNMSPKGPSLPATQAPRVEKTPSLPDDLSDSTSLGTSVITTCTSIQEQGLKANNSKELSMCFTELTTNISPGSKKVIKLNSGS

[3] = molecular target: T1, recombinant soluble rat GDNFRα; test: displacement of 125I-rGDNF from soluble GDNFRα by unlabeled NTN (10 nM)
[4] = molecular target: T1, recombinant soluble rat GDNFRα; test: competition binding of 125I-rGDNF to soluble rGDNFRα, Scatchard analysis

- Kd [1]: > 1 mM
B1: mouse Neurturin (ligand, UniProt P97463 96-195, looked up)
chain: PGARPCGLRELEVRVSELGLGYTSDETVLFRYCAGACEAAIRIYDLGLRRLRQRRRVRRERARAHPCCRPTAYEDEVSFLDVHSRYHTLQELSARECACV
modifications: 125I-labelled when used as tracer
notes: also called mouse NTN; mNTN

- Kd [3]: > 1 nM
B2: Neurturin (NTN), species not stated at the place of use (ligand, UniProt Q99748 96-197, looked up, species assumed)
Neurturin: ARLGARPCGLRELEVRVSELGLGYASDETVLFRYCAGACEAAARVYDLGLRRLRQRRRLRRERVRAQPCCRPTAYEDEVSFLDAHSRYHTVHELSARECACV
- reduction of the motoneuron survival response to NTN after PIPLC treatment (FIG. 7C) [2]: 50 to 90%
- survival of E14 rat spinal motoneurons, counted 72 hours after addition of factor [2]: 50%

- Kd [4]: 3 pM
B3: rat glial cell line-derived neurotrophic factor (ligand, UniProt Q07731 78-211, looked up)
chain: SPDKQAAALPRRERNRQAAAASPENSRGKGRRGQRGKNRGCVLTAIHLNVTDLGLGYETKEELIFRYCSGSCEAAETMYDKILKNLSRSRRLTSDKVGQACCRPVAFDDDLSFLDDSLVYHILRKHSAKRCGCI
modifications: 125I-labelled when used as tracer (iodinated either on tyrosine by the Bolton Hunter method or on lysine using lactoperoxidase)
notes: also called rGDNF; rat GDNF
